# Laboratory results as given in publication PMC5737657 (Nucleic Acids Research, 2017).
# B1: VapB26 antitoxin (untagged, native, co-expressed with VapC26) (natural protein)
# chain: MDKTTVYLPDELKAAVKRAARQRGVSEAQVIRESIRAAVGGAKPPPRGGLYAGSEPIARRVDELLAGFGER
# B2: VapC26 toxin with N-terminal (His)6 tag (native, co-expressed with VapB26) (natural protein)
# chain: MIIDTSALLAYFDAAEPDHAAVSECIDSSADALVVSPYVVAELDYLVATRVGVDAELAVLRELAGGAWELANCGAAEIEQAARIVTKYQDQRIGIADAANVVLADRYRTRTILTLDRRHFSALRPIGGGRFTVIP
# Legend:
# [1] = target: B2; assay: crystal structure
# VapB26 Y51E = VapB26 Y51E (Mycobacterium tuberculosis, UniProt O53778 1-71, Y51E); assay: co-purification on a Ni2+ affinity column
binder,measurement,setting,value
B1,binding result,[1],binds
B2,binding result,VapB26 Y51E,binds
